B1: 1-phosphatidylinositol 4,5-bisphosphate phosphodiesterase delta-1 (Homo sapiens), P51178 (parent)
chain: MDSGRDFLTLHGLQDDEDLQALLKGSQLLKVKSSSWRRERFYKLQEDCKTIWQESRKVMRTPESQLFSIEDIQEVRMGHRTEGLEKFARDVPEDRCFSIVFKDQRNTLDLIAPSPADAQHWVLGLHKIIHHSGSMDQRQKLQHWIHSCLRKADKNKDNKMSFKELQNFLKELNIQVDDSYARKIFRECDHSQTDSLEDEEIEAFYKMLTQRVEIDRTFAEAAGSGETLSVDQLVTFLQHQQREEAAGPALALSLIERYEPSETAKAQRQMTKDGFLMYLLSADGSAFSLAHRRVYQDMGQPLSHYLVSSSHNTYLLEDQLAGPSSTEAYIRALCKGCRCLELDCWDGPNQEPIIYHGYTFTSKILFCDVLRAIRDYAFKASPYPVILSLENHCTLEQQRVMARHLHAILGPMLLNRPLDGVTNSLPSPEQLKGKILLKGKKLGGLLPPGGEGGPEATVVSDEDEAAEMEDEAVRSRVQHKPKEDKLRLAQELSDMVIYCKSVHFGGFSSPGTPGQAFYEMASFSENRALRLLQESGNGFVRHNVGHLSRIYPAGWRTDSSNYSPVEMWNGGCQIVALNFQTPGPEMDVYQGRFQDNGACGYVLKPAFLRDPNGTFNPRALAQGPWWARKRLNIRVISGQQLPKVNKNKNSIVDPKVTVEIHGVSRDVASRQTAVITNNGFNPWWDTEFAFEVVVPDLALIRFLVEDYDASSKNDFIGQSTIPLNSLKQGYRHVHLMSKNGDQHPSATLFVKISLQD

Variants of: B1
Conditions: with imb1_human KPNB1, Q14974
imb1_human KPNB1, Q14974, sequence (Q14974 whole entry): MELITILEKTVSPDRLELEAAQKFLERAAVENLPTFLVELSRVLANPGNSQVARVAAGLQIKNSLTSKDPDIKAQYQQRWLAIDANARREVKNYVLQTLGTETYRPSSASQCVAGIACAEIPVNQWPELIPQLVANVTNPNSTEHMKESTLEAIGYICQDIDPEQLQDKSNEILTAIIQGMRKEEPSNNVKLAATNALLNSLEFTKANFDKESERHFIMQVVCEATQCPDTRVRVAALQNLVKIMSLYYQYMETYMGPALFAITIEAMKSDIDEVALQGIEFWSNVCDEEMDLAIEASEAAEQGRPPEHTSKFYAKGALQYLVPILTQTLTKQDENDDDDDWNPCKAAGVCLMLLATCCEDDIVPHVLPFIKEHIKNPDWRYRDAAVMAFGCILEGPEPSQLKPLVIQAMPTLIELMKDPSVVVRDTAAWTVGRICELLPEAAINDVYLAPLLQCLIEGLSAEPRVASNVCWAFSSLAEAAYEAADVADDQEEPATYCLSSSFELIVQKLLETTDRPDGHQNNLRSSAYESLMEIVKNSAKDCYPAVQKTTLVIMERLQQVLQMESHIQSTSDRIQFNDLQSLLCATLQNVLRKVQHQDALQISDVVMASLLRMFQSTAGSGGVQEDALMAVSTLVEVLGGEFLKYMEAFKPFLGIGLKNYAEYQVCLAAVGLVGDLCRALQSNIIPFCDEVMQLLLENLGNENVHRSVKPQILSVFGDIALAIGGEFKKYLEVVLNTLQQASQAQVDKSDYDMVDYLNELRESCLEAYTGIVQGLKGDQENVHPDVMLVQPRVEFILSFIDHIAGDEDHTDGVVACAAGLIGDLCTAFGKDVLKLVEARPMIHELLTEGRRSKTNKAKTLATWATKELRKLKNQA

| Variant | effect of a mutation on the interaction |
| --- | --- |
| E341A | decreasing interaction |

Reference: IntAct's records for PubMed 16115628
